In paper PMC6305311:

Substrate: O=[N+]([O-])c1ccc(O[C@@H]2O[C@H](CO)[C@@H](O)[C@H](O)[C@H]2O)cc1
Test: purified protein
Details: 5 min, pNPG 0.5-5.0 mg/ml
[1] = optimal pH (6.0) and temperature
[2] = optimal pH 6.0 and temperature 50°C, pH 6.0, 50.0 °C

B1: AaBGL1 (Thermomonospora amylolytica) (protein)
chain: MNLPADFLFGAATSAYQIEGAPAADGRLPSIWDDFCRVPGAIAGGDTGDVACDHYHRWREDVALMRRLGLDAYRFSVAWPRVVPRGTGEVNRPGLDFYDRLVDALLAAGIRPFVTLYHWDLPSALQERGGWPSRDTAAHFADYAAVVAARLGDRVTDWTTLNEPLCTAWIGHLEGRFAPGVRDLRQAVHASHHLLLAHGLGAAAIRANASAPPSIGLVNNLSPIQAASDRPEDVRAAIRADGHVNRWWLDPAHGRGYPADMIEVYGVEPPVRDGDLETIAAPVEYVGLNYYFRQIVADDPDGPAPYARQVPVPGAQTTAMGWEVHADGLAELLLRLSEDYTAPRIYVTESGSAWDDKVGADGSINDQDRIAYLEDHLAAVARAAEAGAPVQGYFVWSLLDNFEWADGLDKRFGLVHVDYATQQRTVKASGHRYAEIIRAHRGAP
- Km [1]: 3300 µM
- Vmax [1]: 6.8 µmol/min/mg
- kcat [1]: 5.5 s⁻¹

B2: AaBGL2 (Thermomonospora amylolytica) (protein)
chain: MTAHETQAQIREPATAPFPQDFRWGAATSAYQIEGAVAEDGRGRSIWDTFCDTPGAVLGGDTAAEAVDHYHRYREDVALMAGLGLNAYRFSLSWPRIQPSGTGPADQRGLDFYRRLVDELLEAGIEPWITLYHWDLPQALEDKGGWPERDTALRFAEFAALAHGALGDRVSNWMTINEPWCAAYLGYASGEHAPGRREPAAALEAAHHLLLGHGLAVEAMRGQRSGARIGPAVNLYAVSPAADTPEDLDAARRIDGLQNRFFLDALLLGRYPDDLLEDLAPFGFADCVRDGDMRVVGVRNDLLGINYYTRHTVSGRPGDATQAVSSPFSTVSPWVGSEHVRFVGQGKPVTGMGWEVDPDGLLEVLARLHREYPAVPLYITENGAGYDDVLDADDAVRDDERIAYLDAHLRVCARAIDAGIPLRGYFTWSLMDNFEWAWGYSKRFGLVYVDYATQRRIPKASARWYARTIRRGGLPD
- Km [2]: 730 µM
- Vmax [2]: 1.9 µmol/min/mg
- kcat [2]: 1.7 s⁻¹
